Earlier results on 2 substances are cited in publication PMC5643527, “In vivo imaging of lung inflammation with neutrophil-specific ^68Ga nano-radiotracer” (Scientific Reports, 2017).

Series [1] deals with formyl peptide receptor 1 (Homo sapiens) (UniProt P21462).
Series [2] concerns the target formyl peptide receptor 1 (FPR-1). Conditions: antagonist of FPR-1; read-out: binding affinity (Kd). On the procedure:
A particularly interesting compound is the peptide N-cinnamoyl-F-(D)L-F-(D)L-F (cFLFLF), an antagonist of formyl peptide receptor 1 (FPR-1). The very high binding affinity of cFLFLF (Kd = 2 nM) is the main reason for its use in neutrophil-specific probes for PET and optical fluorescence[7],[8],[10]. However, the high hydrophobicity of cFLFLF produces very poor target-to-background ratios. This serious limitation is the reason why to date the amount of radiotracer reaching the inflammation site is below 1% (expressed as the % of injected dose per mass of the organ)[7],[10]. || Inflammation is a central feature of many clinical conditions and can be broadly classified as acute or chronic. Acute inflammation typically occurs over a timescale of minutes to hours, whereas chronic inflammation can develop over several days to months. The predominant cell type in acute inflammation is the neutrophil, whereas chronic inflammation features a greater variety of cell types.

UniProt P21462, sequence (P21462 whole entry): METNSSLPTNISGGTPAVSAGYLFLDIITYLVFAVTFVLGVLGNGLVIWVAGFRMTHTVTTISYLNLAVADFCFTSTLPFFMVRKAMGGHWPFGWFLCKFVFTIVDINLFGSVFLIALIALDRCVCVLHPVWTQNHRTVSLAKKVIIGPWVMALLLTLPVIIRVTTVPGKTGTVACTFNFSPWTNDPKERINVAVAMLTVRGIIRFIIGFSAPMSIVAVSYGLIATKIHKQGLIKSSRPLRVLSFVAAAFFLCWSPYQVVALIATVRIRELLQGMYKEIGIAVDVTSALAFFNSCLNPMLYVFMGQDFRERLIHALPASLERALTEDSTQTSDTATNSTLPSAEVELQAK

As usually defined, the Kd is a measure of binding affinity in units of concentration. Regarding cFLFLF (N-cinnamoyl-F-(D)L-F-(D)L-F), in series [1], the equilibrium dissociation constant (Kd) is 2 nM.
Take N-cinnamoyl-F-(D)L-F-(D)L-F [cFLFLF]: the Kd in series [2] is 2 nM.
